Data on five molecules can be found in PMC9261936 (Biochemistry, 2022).

Primed or numbered codes have the meaning given here. *: point of attachment. FITC = O=C1OC2(c3ccc(O)cc3Oc3cc(O)ccc32)c2ccc(NC(=S)*)cc21; Dnp′ = not defined here; CH2Cl = ClC* Bounds are passed on as bounds.

Data set [1] has as its target T1, SaPrp (Staphylococcus aureus, UniProt Q2FXS9, N63Q).
T1 sequence (Q2FXS9 1-106 N63Q): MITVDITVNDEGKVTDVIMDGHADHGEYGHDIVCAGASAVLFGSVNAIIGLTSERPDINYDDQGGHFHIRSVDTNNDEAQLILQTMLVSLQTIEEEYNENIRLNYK
It counts as biochemical. The settings on record: compound at 100 μM, FITC-conjugated peptide.

Data set [2] concerns SaPrp. Briefly: Covalent complex formation with SaPrp, mass spectrometry. The settings on record: 2.6-fold molar excess over SaPrp, 1 h, room temperature. It counts as biochemical, Staphylococcus aureus.
In data set [3] the target is T1, SaPrp. Briefly: Michaelis–Menten steady-state kinetics, cleavage of FITC-[…]-Dnp. It counts as biochemical.
For data set [4] the following is noted: other cysteine proteases, means and standard deviations; cited from earlier work.

`COC([CH2][Hg+])CNC(=O)c1ccccc1OCC(=O)O.[OH-]` (stereo not drawn) [Compound 4, Mersalyl Acid]: at SaPrp [1], the “Inhibition of Prp at 100 μM” value is recorded as “Prp could not cleave the peptide”.
For the molecule “acetyl-KLNLQFF-chloromethylketone (Ac-KLNLQFF-CH2Cl; SMILES CC(=O)N[C@@H](CCCCN)C(=O)N[C@@H](CC(C)C)C(=O)N[C@@H](CC(N)=O)C(=O)N[C@@H](CC(C)C)C(=O)N[C@@H](CCC(N)=O)C(=O)N[C@@H](Cc1ccccc1)C(=O)N[C@@H](Cc1ccccc1)C(=O)CCl) [Ac-KLNLQFF-CMK]”, the “Formation of the covalent complex with SaPrp” value with SaPrp [2] is above 95%.
Turning to “FITC-KLNLQFFASKK-Dnp ({FITC}-KLNLQFFASKK-{Dnp′}) [Compound 1]”, the Vmax with SaPrp [3] (FITC-KLNLQFFASKK-Dnp substrate 0.2–20 μM, 48.2 nM SaPrp (monomer)) came to 11 ± 4.0 nM/s. The kcat in the data set with SaPrp [3] (FITC-KLNLQFFASKK-Dnp substrate, ET constrained to 42.8 nM active sites) was 0.26 ± 0.05 s^–1.

B1: μ-calpain: literature comparator cysteine protease (protein, UniProt P07384 2-714; P04632 1-268, looked up)
Calpain-1 catalytic subunit: SEEIITPVYCTGVSAQVQKQRARELGLGRHENAIKYLGQDYEQLRVRCLQSGTLFRDEAFPPVPQSLGYKDLGPNSSKTYGIKWKRPTELLSNPQFIVDGATRTDICQGALGDCWLLAAIASLTLNDTLLHRVVPHGQSFQNGYAGIFHFQLWQFGEWVDVVVDDLLPIKDGKLVFVHSAEGNEFWSALLEKAYAKVNGSYEALSGGSTSEGFEDFTGGVTEWYELRKAPSDLYQIILKALERGSLLGCSIDISSVLDMEAITFKKLVKGHAYSVTGAKQVNYRGQVVSLIRMRNPWGEVEWTGAWSDSSSEWNNVDPYERDQLRVKMEDGEFWMSFRDFMREFTRLEICNLTPDALKSRTIRKWNTTLYEGTWRRGSTAGGCRNYPATFWVNPQFKIRLDETDDPDDYGDRESGCSFVLALMQKHRRRERRFGRDMETIGFAVYEVPPELVGQPAVHLKRDFFLANASRARSEQFINLREVSTRFRLPPGEYVVVPSTFEPNKEGDFVLRFFSEKSAGTVELDDQIQANLPDEQVLSEEEIDENFKALFRQLAGEDMEISVKELRTILNRIISKHKDLRTKGFSLESCRSMVNLMDRDGNGKLGLVEFNILWNRIRNYLSIFRKFDLDKSGSMSAYEMRMAIESAGFKLNKKLYELIITRYSEPDLAVDFDNFVCCLVRLETMFRFFKTLDTDLDGVVTFDLFKWLQLTMFA
Calpain small subunit 1: MFLVNSFLKGGGGGGGGGGGLGGGLGNVLGGLISGAGGGGGGGGGGGGGGGGGGGGTAMRILGGVISAISEAAAQYNPEPPPPRTHYSNIEANESEEVRQFRRLFAQLAGDDMEVSATELMNILNKVVTRHPDLKTDGFGIDTCRSMVAVMDSDTTGKLGFEEFKYLWNNIKRWQAIYKQFDTDRSGTICSSELPGAFEAAGFHLNEHLYNMIIRRYSDESGNMDFDNFISCLVRLDAMFRAFKSLDKDGTGQIQVNIQEWLQLTMYS
Consider B1, for which the kcat in data set [4] is reported as 0.015 ± 0.002 s^–1.

B2: papain: literature comparator cysteine protease (protein, UniProt P00784 134-345, looked up)
Papain: IPEYVDWRQKGAVTPVKNQGSCGSCWAFSAVVTIEGIIKIRTGNLNEYSEQELLDCDRRSYGCNGGYPWSALQLVAQYGIHYRNTYPYEGVQRYCRSREKGPYAAKTDGVRQVQPYNEGALLYSIANQPVSVVLEAAGKDFQLYRGGIFVGPCGNKVDHAVAAVGYGPNYILIKNSWGTGWGENGYIRIKRGTGNSYGVCGLYTSSFYPVKN
In the case of B2, the kcat in data set [4] was 0.0162 ± 0.000135 s^–1.
